Reference: a protein production outcome set (Wang et al. 2014)

Test: label from the status in PepcDB records

Sequence	protein production
MPSIIEAKHQGQKQSKNELKQARQSVIEQIQDLVPSSTVTHEYDFLFSGFALELPAHQIPSILGIDGVHAVYPNIEYEVETDFDEVVIEKDAYSPEMLDSAPFIGANDAWEAGYTGEGITVAILDTGVDYTHPDLVHAFGDYKGWDFIDNNDDPQETPPGDPRGIETTHGTHVAGTVAANGLIKGVAPDANLLAYRVLGPGGRGSTAGVIAGIERAVQDGADIMNLSLGNTLNDPDFATSIALDWAMAEGVVAVTSNGNSGPNNWTVGSPGTSRDAISVGATRLPYNKYKASVFTSDGIDYPSADIMGFPSDEELLELDGETYEYAFAGLGKPGDFEGVDVEGKIALIVRGEIPFVEKAENAKAAGAVGAIIYNNVAGVQPTVPGLAIPTIMLSNEDGLKMRNELENGQNTVTFSIEFDKLVGETVADFSSRGPVMHTWMIKPDVSAPGVAIVSTIPTHQPDDPYGYGSRQGTSMASPHVAGAAALLLEAHPNWGVDHVKAALMNTAENLVDENGNRYPHNTQGAGSIRIVDAIESETLVTPGSHSFGTFTKERGKQVERQHFTIHNLSNKRKTYQFDVQFAGNPDGIKVKTSKNLRVQPGKTQKINFNVQVDARKLDPGYYEGTIIVSDGSQTVEVPTILFVSEPDYPRVTTFDLDIDENGVLFGSAYLPNGAEEFGLWIYTRDTLEYVTSAAVVQNIGKGYHDVTWDTTELAPGRYYVFAYAERLGKTDFVLGDEIVVKLEHHHHHH	failed
MPSLGCCYIMGGTVLWAIAAELFFESMNLITWLADFSRGHCVGICAALVPSILLWTTICAVLIALGQPRWSVNTAYVATLTVCGVMVLHVASWFSIGVITPVTFILLGLSLSCGSLATLFWRYSSQWQKFCHSGLRETIKAKWPQTLKI	failed
MPSLTTLRSRELGPETFIPYVRHVDESTIALDSRALMVMIALEGVSFETADILDLNALHRDLNTLYRNIADERLALWTHLIRRRDNSYPEGTFATPFSAALNDKYRERMVGEDLFRNDLYLSILWSPARDPADKAAKLLSRLRRARRVGTELDEGALKHLRDKVIDVTAALRRFEPRVLTLYEHDGLMFSEPSEVLHQLVGGRREPIPLTEGHIASAIYSDRVIVGRETIEIRHEADSRYAGMLSFKEYPARTRTGMLDAVLTSPFELILAQSFSFVSKADARMIMGRKQNQMVSSGDKAASQIEELDGAMDDLESNRFVFGEHHLTLSVFAPSVKELTDNLAKARASMTSGGAVVAREDLGLEAAWWAQLPGNFRYRARSGAITSRNFAALSPFHSYPLGQKDGNEWGPAVALLKTASGSPYYFNFHYGDLGNTFVCGPSGAGKTVLLNFMLSQLEKHDPHVVFFDKDRGADLYVRAAGGTYLPLKNGIPTGCTPLKALELTPENKVFLTRWVGKLVGSATRELSVTELRDISSAIDGLADLPVERRTIGALRTFLDNTNPEGIAARLRRWERGGPLGWVFDNVIEDIGFGEFGGGKLVGYDMTDFLDNEEIRAPLMAYLFHRVEQLIDGRRIIIVIDEFWKALQDEGFRDLAQNKLKTIRKQNGLMLFATQSPRDAIVSPIAHTIIEQCPTQIFLPNSRGNHGDYVDGFKLTEREFELVARELSIESRRFVLKQGHNSVVAELDLKGLDDELAILSGRTANVELADAIRAEVGSNAKDWLPVFQQRRSATLEHHHHHH	failed
MPSPTVTSPQVAVNDIGSSEDFLAAIDKTIKYFNDGDIVEGTIVKVDRDEVLLDIGYKTEGVIPARELSIKHDVDPNEVVSVGDEVEALVLTKEDKEGRLILSKKRAQYERAWGTIEALKEKDEAVKGTVIEVVKGGLILDIGLRGFLPASLVEMRRVRDLQPYIGKEIEAKIIELDKNRNNVVLSRRAWLEQTQSEVRSEFLNNLQKGTIRKGVVSSIVNFGAFVDLGGVDGLVHVSELSWKHIDHPSEVVQVGDEVTVEVLDVDMDRERVSLSLKATQEDPWRHFARTHAIGQIVPGKVTKLVPFGAFVRVEEGIEGLVHISELAERHVEVPDQVVAVGDDAMVKVIDIDLERRRISLSLKQANEDYTEEFDPAKYGMADSYDEQGNYIFPEGFDAETNEWLEGFEKQRAEWEARYAEAERRHKMHTAQMEKFAAAETAGRGADDQSSASSAPSEKTAGGSLASDAQLAALREKLAGSALEHHHHHH	failed
MPSQKPIIVSKTSAAASSSSDRLRIIPLGGLHEIGKNTCIYEVGDEILLVDAGLAFPTDGMHGVNVVLPDMTYLRENQHRIKAMVVTHGHEDHIGGIPFHLRQLDIPIIYGPRLAMALLAGKLEEAGVVGRANVKTVQPREVVRIGQNFLVEFIRNTHSIADSFTLAIRTPLGVVIHTGDFKFDHTPVDGETFDIQRLADYGEQGVLCLVSDSTNAELPGFTPSERSVFPNLDRAFSQAQGRLIVTTFASSVHRVNMILELAKKHGRKVTVLGRSMLNVIAHARNLGYIHCSDDLFLPPKELRDHPDRDVLILTTGSQGEPLAALTRIARQEHPQVKIRQGDTVIFSANPIPGNTISVVNTIDQLMMQGAHVVYGKGAGIHVSGHGCQEDQKLMIALTKPKFFVPVHGEHRMLVQHCKTAQSMGVPPEHMIVIDNGDTVELTPESIGLGDRVTAGIELVDTSRTGLVDGKALKERQQLAEDGLVSLSALVNSQGQLVDAPTVHLRGVVTSADPRRVSVWAQKEVEMALDNRWADYCRRLPSGELDVDWVGLHAEVEVGMQRRLKRELQCVPMILCTLQSVPSVAAQPAEEDNRMRRRRSSAPIKVGAKL	failed
MPSRKFADGEVVRGRWPGSSLYYEVEILSHDSTSQLYTVKYKDGTELELKENDIK	not failed
MPSRQLQILIRKTLPLVPDHVLIIGESGIAFSKATNLLGQEFEHILFDGRNGIHLEALAIAAGTLKMGGTLCLVLSDWENLSQQPDQDSLRWNGNQSAIATPNFIYHFKQCIERYHFPILREESAVEFPTVFYSNEHHKNATLAQQQIIENILQAEQDIYFLTAKRGRGKSALLGMLANQIQAPVYLTAPNKSAVHSVIEFSEGDIEFIAPDELALTLQTEPEFSQSAWLLVDEAAMIPLPLLQEYSRYFQHIVFSTTIHSYEGTGRGFELKFKRKIHRTFQHFELKQPLRWQENDPLEHFIDDLLLLNAEDDFQHFDYSNITYNIEENAKNLSFPCLRGKVPEGPKGGFRYS	failed
MPSSFNVESADGYERLMGRWSRKLAPMLIDFAGLADGDRVLDVGCGTGSLAFTLAETSGLQEIAAVDYSPVFVEAATRRNTDPRVSIRQADACALPFEDDRFDRAMSLLVLHFVPEAGKAVSEMRRVVRPGGVVAAAVWDHYGGMSGMRMMWDTVAMLDEGALPLRRKYCFQPMMRPGEMKESFIAQGLADVEETSLLIRMEYVSFADYWEPIAAGEGPLGKYVAGLDPAKRKAVDAAMRAAYEAGEPDGPRSFAAVAWACRGRVPGQS	failed
MPSSMLSHDPVLTWSIVALATAGVIIRPMRWPEAVWAVAGAVALVALGLLSWQDALAGVRNGIDVYLFLIGMMLIAELAQREGLFDYLAAYAVEHARGSPQRLFLLVYAVGVLVTVLLSNDATAIVLTPAVYAATRAAGAAPLPYLFVCAFIANAASFVLPISNPANLVVFGEHMPHLGGWLQQFTLPSLAAILATYLVLRLALRRSLAGQTIETRVETPHLSRGGKLAAVGIGAIAIVLLTASALNVALGLPTFVCGLVTTAVVLAIARQSPVPVLKGVSWSVVPLVAGLFVMVEALSRTGVIGALGGLLREAVADAPRLGSWAAGIVTAIACNIGNNLPVGLVAGSVAADNHLPRETIAALLIGVDLGPNFSVTGSLATILWLVVLRRNQIEVTAWRFLKLGLVVTPPALIAALAAAVW	failed
MPSTLQGTFHTYRIIRRLGQGAFGEVSLAGVLETGEVVALKRIHIRNTGGIPDVVVREIKALQSVSHPNVVALLDVFPKGQAIYLVQEYCTTDLAALLRRLPAPPPERIAKGLMLQLCRGLEALHAEGIMHRDVKPSNTLLSAASGTAKLADCGLARPLDGGERPAYTHAVATRWYRAPELLYGARAYGPAVDVWALGLVFAELLGLSPLVPGDNDIDQLGRVIATFGSMEPVWLGVRALPDWGKIAFPHCEPLPLGDLLPGAPAAALEFLAAFLRYDPAKRITAACAVRSTYLTATQPL	failed
MPSTQSLTVAAKTLRNRIFSRSGSTSAGPSRWATPGHEERPKGYFMNRTPPAPGQSRKWEDWELPCYITSFLTIVILGVGLNAKPDLSIETWAHQKALERLEMEKLATAGDSSD	failed
MPTIFQIPTFIQILEFIGTFAFAISGIRLASAKQFDWFGAYVAGVAVAIGGGTIRDVLLDVTPFWMTNPIYLICSALALLWVIFFRKHLIHMHNTFFIFDSIGLALFTVVGISKTIDLGYAFWVAIIMGTMTGAAGGVIRDVFINEIPLIFRKEIYAMACVIGGVIYWGLDRFGVDAALTQVISGCCIFVVRALAVKYQICLPILKGE	failed
MPTINQLIRKERKKVVKKTKSPALVECPQRRGVCTRVYTTTPKKPNSALRKVAKVRLTSKFEVISYIPGEGHNLQEHSIVLVRGGRVKDLPGVKYHIVRGALDTAGVNKRTVSRSKYGTKKAKATDKKATDNKKK	failed
MPTKKMTRAQTCPHQTTVISNLKIIPLTLGWLLKSALLIIIIAVFIPLSPKMPAPGLDASWAVGLNQAVAQGLAFGKDIFFTLGPYSSIYTKFYHPATDFMMVGGSLYLALCYWIAIILLMQGIKWRWSIAFAILLFSMIYARDSLFFSYSLIIGLLIHKEISGKETSFKSNFCTLFALLFTPFGLFPLIKGSLLILSIITVLLCSLFLILYKQRNLAVLCLASPVVSILFFWIASGQSIFNLPAYVSNTILLASGFTEAMAIEGDNKELIFFGVTSSCILLSILLQKQLSPLSKAFLFCIYLVFLFLSYKTGFTRHFGHAFIAGTSVLLASFLLPYFNSNNKVIVPLLALSLYTASYINGHYTKISVRDNFISTYTAAYYGLKNRIQNKNWLKENFSLTMNYLKARDDFPRLPGTTDIYSYNQTSLIASGMTWSPRPIFQSYSVFTAKMAEINTNYLLSENKPDNILFKVEPIDNRIPSMEDGMSWPILINHYQPVRLENDFLFLRKKLVNKPVTSLVPLKTEIHTFGEQVKIPDTDKSLFVEIDIQPTLWGMLATTFFKPHQLEANLELKNGTQRQYRLISNMAKSGFLLSPFIENSAEFGLLFSQNNYLAGKKVISFSINSKQVPSSHWQTKYTIHYKTFASNN	failed
MPTTDLRKAQLQIHFCVLLWGITAILGKLITLQALPLVWWRMLIVVVALALWPRVWRGLRGLSGRVVLGYCGIGALVALHWLTFYGAIKLANASVAATCIALAPVFTAVIEPLVTHRPFRPRELLFGLAVLPGVALVVGGVPDGMRAGVVVGAISAVFVGLFGSLNKRMVAHADPLTVTALELGAGTLTLTLLAPAMPLLLPALHGDLLVVPSLHDGVLLLALSLACTLLPFALALVALRHLSAYSVQLVTNLEPVYAIVLAIALLGEQRELTLQFYLGVAIILGAVFLHPVLERRRTVAHPELLGTAEAKNIVD	failed
MPTTQLHHHYVLCGWHVRSALTLPELPPWSATATPVDADVVIEEGEVPDRLDLHDPVESWLSVGRDGSVLLQVPQVVRIHVHAGRAMRVQRLNRHDESWRLFLLGSALGYLCLQRSLFPLHAACLRIGTQTVAFAGHSGAGKSTLAAALLKRGHGLLSDDLTVIRLDSAGAIMVLPAFPRLKLWRDTLESLQLPVTDAPPVRPGMEKFDLRPSAGFDAAPVRLDAVVVLGDASEPHLQRLSPQHALPLLHGYLARPQAAVRMGLHAATFAHAAAIARQVPVWRLRRPRRFDALDITVDLIEAHVGALEHHHHHH	failed
MPTVKLTKNITIMTGSPNTLIYDNRVVIDLGGKNSSVDINAEVQLATHGHADHIAGLLKKDAKIRYLPKEDYWSLTLMGRRAMIYGCSSKDSDIFTFDYVKENIESIDIEVRTSEIEVIKLPGHTPGHSGYIVDNVLYAGDAFFGEKVLEGFSVPFYTDFWTALESLNKVKELAKSVNNIVISHGPVYTNKNKMVSILESNIIYAQNLIGKILDMLSNNELTVEEIVVKLKQDLTPSNVLLNSVVVRSILFGLENIEYNVSQKGLVFRRRVH	failed
